Test results from paper PMC3107500 (2011).
Blank lines part the entries; values can stand above or below the binder they belong to.

Target: T1, PITPNM3 (Homo sapiens, UniProt Q9BZ71)
T1 chain: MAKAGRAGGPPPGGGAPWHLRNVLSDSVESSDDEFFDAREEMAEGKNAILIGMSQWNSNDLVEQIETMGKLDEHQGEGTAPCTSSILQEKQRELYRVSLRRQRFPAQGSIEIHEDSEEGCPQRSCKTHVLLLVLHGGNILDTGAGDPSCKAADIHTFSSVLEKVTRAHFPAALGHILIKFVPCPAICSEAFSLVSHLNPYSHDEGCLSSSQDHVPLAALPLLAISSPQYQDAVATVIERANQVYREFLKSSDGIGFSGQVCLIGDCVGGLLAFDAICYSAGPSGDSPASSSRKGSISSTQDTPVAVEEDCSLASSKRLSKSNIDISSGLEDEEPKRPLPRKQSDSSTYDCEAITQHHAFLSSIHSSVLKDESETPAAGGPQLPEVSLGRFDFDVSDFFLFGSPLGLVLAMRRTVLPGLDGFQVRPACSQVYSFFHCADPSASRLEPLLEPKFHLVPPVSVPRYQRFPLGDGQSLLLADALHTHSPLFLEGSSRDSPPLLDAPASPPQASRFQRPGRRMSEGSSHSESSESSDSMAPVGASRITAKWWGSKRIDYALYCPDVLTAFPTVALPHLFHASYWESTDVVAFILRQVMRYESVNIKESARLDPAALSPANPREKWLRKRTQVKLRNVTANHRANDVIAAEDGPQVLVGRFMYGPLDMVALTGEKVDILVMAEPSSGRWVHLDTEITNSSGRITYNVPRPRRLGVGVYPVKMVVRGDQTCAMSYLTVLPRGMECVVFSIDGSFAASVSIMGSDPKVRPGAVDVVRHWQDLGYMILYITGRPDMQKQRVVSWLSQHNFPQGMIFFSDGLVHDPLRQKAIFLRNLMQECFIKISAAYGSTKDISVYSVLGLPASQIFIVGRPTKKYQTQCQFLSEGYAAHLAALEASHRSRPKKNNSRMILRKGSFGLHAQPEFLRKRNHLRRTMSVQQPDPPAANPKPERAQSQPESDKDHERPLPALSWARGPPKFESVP
Assay: 125I-CCL18 radioligand competition binding on PITPNM3-transfected HEK293 cells

Kd: 0.833 µM
B1: CCL4 (protein)
chain: APMGSDPPTACCFSYTARKLPRNFVVDYYETSSLCSQPAVVFQTKRSKQVCADPSESWVQEYVYDLELN

Kd: 0.277 µM
B2: CCL3 (protein)
chain: SLAADTPTACCFSYTSRQIPQNFIADYFETSSQCSKPGVIFLTKRSRQVCADPSEEWVQKYVSDLELSA

Kd: 0.00517 µM
B3: CCL18 (protein)
chain: GTNKELCCLVYTSWQIPQKFIVDYSETSPQCPKPGVILLTKRGRQICADPNKKWVQKYISDLKLNA
